Target: APOBEC3G (A3G) (UniProt Q9HC16 1-384)
Experiment: AFM force spectroscopy; two binding modes; stronger and more stable complexes than with nonspecific ssDNA; Force spectroscopy probing buffer: 50 mM HEPES, 100 mM NaCl, 5 mM MgCl2, 1 mM DTT (pH and temperature not given); imaging buffer not in the material
Conditions: protein: recombinant; tags: mycHis (C-terminal)

Sequence of APOBEC3G (A3G) (Q9HC16 whole entry): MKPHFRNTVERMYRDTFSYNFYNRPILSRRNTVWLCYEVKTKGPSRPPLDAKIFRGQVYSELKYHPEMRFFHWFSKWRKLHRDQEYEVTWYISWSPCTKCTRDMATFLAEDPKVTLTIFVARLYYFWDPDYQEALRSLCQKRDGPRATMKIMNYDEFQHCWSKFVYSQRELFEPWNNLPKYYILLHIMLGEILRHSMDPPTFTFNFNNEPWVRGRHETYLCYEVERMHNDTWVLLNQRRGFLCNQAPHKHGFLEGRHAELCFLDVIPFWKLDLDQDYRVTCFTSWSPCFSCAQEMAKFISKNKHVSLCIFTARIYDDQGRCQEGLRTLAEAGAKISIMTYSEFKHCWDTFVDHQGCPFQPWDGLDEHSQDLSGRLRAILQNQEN

B1: 69 nt deaminase specific ssDNA (ssDNA)
DNA: TACGTGTAGGAATTATATTAAAGAGAAAGTGAAACCCAAAGAATGAAAACCCAAATGTTAGAATTGTTA
modifications: 5' thiol
  binding result: binds
